Experiments:
[1] = target: T1, RbBP5 beta-propeller (1-340) wild type (mouse, UniProt Q8BX09 1-340); assay: NMR 1H-15N HSQC titration; marginally stronger than 7N-RNA pool; Anisotropy: 50 mM Tris pH 7.4, 150 mM NaCl, 0.5 mM DTT, 20 C; NMR conditions not in the material; details: protein: recombinant; tags: 6xHis-SUMO removed by 3C protease
[2] = target: T1, RbBP5 beta-propeller (1-340) wild type; assay: fluorescence anisotropy; Anisotropy: 50 mM Tris pH 7.4, 150 mM NaCl, 0.5 mM DTT, 20 C; NMR conditions not in the material; details: protein: recombinant; tags: 6xHis-SUMO removed by 3C protease; label: 6-FAM (3')

T1 sequence (Q8BX09 1-340): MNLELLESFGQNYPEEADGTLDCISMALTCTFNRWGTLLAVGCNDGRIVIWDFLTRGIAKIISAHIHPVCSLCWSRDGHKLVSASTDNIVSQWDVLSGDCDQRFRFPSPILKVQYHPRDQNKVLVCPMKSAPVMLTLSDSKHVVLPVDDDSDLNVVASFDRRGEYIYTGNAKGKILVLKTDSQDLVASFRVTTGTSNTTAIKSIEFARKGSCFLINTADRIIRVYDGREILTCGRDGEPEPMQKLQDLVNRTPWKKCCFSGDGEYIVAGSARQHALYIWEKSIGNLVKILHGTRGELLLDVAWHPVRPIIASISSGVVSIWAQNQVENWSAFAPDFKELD

Binder | binding result [1] | Kd [2] [µM]
UAGGUUC (ssRNA) [SIA optimized RNA 7-mer] | binds | 
GCAUAGGUUCGAUC (ssRNA) [14-mer ssRNA-6FAM] |  | 22.5 ± 3.2
